One molecule from patent US20180177810A1 (UNIVERSITY OF NOTRE DAME DU LAC, published 2018) can be followed below.

In the experiment the target is T1, Very late antigen-4 (VLA-4; α4β1 integrin) on multiple myeloma cell lines (human, UniProt P13612 34-1032; P05556 21-798).
T1 construct: whole, on cells; also called VLA-4 receptor
Briefly: peptide screen of Example 1 (FITC-labeled peptides on MM cells, flow cytometry).

Where no end group is shown, it is not given here.

T1 sequence (P13612 34-1032, chain 1 of 2): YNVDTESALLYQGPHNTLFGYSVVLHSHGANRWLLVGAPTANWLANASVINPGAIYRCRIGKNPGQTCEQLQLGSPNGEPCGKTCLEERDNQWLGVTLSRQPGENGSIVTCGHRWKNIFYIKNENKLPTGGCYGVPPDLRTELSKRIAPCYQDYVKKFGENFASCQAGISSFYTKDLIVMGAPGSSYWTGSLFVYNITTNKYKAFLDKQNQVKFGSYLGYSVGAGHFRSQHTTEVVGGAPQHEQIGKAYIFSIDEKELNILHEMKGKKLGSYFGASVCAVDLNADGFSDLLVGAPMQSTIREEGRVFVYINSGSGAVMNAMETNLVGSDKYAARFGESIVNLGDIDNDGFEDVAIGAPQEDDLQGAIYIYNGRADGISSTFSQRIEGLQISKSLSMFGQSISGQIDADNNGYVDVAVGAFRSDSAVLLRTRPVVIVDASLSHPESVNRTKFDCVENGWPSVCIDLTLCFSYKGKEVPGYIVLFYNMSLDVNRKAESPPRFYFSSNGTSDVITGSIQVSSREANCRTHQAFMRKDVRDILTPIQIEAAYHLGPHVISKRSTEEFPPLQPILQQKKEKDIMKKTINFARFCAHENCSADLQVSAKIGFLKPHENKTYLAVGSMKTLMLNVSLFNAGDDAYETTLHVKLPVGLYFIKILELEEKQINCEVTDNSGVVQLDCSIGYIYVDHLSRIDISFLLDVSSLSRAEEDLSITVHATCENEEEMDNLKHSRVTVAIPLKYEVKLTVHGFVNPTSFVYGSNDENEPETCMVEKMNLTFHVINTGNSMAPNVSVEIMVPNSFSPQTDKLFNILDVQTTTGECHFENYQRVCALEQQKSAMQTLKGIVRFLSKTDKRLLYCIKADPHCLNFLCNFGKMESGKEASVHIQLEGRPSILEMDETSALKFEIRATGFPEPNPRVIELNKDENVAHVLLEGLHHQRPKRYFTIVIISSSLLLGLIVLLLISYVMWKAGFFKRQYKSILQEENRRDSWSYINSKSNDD
T1 sequence (P05556 21-798, chain 2 of 2): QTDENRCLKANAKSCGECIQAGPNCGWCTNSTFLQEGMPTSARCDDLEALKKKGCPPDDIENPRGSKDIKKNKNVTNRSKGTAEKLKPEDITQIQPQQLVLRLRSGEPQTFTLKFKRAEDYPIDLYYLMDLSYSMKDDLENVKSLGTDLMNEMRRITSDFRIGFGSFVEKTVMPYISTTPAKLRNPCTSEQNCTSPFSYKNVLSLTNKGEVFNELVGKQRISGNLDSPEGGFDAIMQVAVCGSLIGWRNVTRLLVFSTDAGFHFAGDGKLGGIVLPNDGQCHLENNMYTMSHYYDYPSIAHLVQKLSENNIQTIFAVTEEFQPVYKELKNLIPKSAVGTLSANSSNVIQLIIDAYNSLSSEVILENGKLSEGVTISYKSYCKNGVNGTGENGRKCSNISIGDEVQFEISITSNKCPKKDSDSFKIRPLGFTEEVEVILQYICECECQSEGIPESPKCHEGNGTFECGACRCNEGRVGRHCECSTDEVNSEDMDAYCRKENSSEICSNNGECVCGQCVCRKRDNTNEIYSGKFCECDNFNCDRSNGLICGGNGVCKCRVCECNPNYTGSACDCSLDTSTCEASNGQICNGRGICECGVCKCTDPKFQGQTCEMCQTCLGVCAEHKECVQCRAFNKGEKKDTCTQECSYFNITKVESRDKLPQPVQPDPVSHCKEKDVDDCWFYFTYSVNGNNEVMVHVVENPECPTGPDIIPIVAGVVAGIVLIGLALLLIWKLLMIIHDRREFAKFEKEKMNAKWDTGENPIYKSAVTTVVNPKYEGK

B1: peptide sequence CFLDFP (peptide)
peptide: CFLDFP
modifications: not fully specified (C-terminus); also: FITC-labelled version synthesized for binding assays
notes: The assay for this peptide is not described separately
On to B1, for which the binding result is on record as “binds”.
